# In patent publication EP4711384A1 (WIO Bioscience Co., Ltd., dated 2026):
# T1: human IL-18R1 and IL-18RAP on IL-18 Reporter HEK 293 Cells (human, UniProt Q13478 19-541; O95256 20-599)
# T1 sequence (looked up) 1: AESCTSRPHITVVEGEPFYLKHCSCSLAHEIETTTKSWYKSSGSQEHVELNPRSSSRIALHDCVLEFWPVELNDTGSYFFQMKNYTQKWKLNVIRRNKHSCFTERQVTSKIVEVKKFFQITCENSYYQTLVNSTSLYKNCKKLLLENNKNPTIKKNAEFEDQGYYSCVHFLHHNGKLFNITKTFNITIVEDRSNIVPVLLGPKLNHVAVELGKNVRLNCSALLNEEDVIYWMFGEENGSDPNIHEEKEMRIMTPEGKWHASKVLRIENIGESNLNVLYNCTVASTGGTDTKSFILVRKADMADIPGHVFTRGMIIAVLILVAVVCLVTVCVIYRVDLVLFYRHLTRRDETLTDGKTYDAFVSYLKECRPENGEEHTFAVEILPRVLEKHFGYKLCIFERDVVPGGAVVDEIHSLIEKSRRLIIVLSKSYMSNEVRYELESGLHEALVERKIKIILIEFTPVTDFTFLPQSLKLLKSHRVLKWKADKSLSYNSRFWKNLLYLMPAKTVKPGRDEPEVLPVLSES
# T1 sequence (looked up) 2: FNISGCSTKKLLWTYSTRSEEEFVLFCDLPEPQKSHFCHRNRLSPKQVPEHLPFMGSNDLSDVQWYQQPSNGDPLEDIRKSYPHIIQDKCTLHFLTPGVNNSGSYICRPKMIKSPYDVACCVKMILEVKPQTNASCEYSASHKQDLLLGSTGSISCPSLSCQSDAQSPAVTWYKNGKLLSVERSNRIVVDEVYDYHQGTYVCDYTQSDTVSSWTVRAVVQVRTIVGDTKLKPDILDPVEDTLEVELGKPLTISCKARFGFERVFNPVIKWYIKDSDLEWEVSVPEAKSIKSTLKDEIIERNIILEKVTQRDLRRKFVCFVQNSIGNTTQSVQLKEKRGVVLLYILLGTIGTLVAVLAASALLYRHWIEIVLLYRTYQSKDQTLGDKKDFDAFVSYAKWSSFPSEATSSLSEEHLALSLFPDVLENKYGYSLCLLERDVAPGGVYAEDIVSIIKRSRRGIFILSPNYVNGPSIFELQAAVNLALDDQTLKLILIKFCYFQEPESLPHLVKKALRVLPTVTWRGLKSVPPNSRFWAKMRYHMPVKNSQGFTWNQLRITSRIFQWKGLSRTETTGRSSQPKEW
# Biological target: T1, human IL-18R1 and IL-18RAP on IL-18 …
# Experiment: cell-based or functional assay
Binder,EC50 [ng/mL],Top530nm
hzWio-02-01-Hm1 (bispecific antibody) EVQLVESGGGLVQPGGSLRLSCAASGHAYDNACMGWFRQAPGKEREGVASIHLRDRTYYADSVKGRFTISRDNSKNTLYLQMNSLRAEDTAVYYCASSNICNALNLQGNTYWGQGTLVTVSSGGGGSEVQLLESGGGLVQPGGSLRLSCAASGYTYGPYCMGWFRQAPGKEREGVAAVGGDARTWYGNSVKGRFTISRDNSKNTLYLQMNSLRAEDTAVYYCAADFDRTVCSDDIYDYTYRGQGTLVTVSSHHHHHH,1.25,0.909
hzWio-02-01-Hm8 (bispecific antibody) EVQLVESGGGLVQPGGSLRLSCAASGTAYDNACMHWFRQAPGKEREGVASIHLRDRTYYADSVKGRFTISRDNSKNTLYLQMNSLRAEDTAVYYCASSNICNALNLQGNTYWGQGTLVTVSSGGGGSEVQLLESGGGLVQPGGSLRLSCAASGYTYGPYCMGWFRQAPGKEREGVAAVGGDARTWYGNSVKGRFTISRDNSKNTLYLQMNSLRAEDTAVYYCAADFDRTVCSDDIYDYTYRGQGTLVTVSSHHHHHH,1.01,1.51
hzWio-02-01-Hm2 (bispecific antibody) EVQLVESGGGLVQPGGSLRLSCAASGTHYDNACMGWFRQAPGKEREGVASIHLRDRTYYADSVKGRFTISRDNSKNTLYLQMNSLRAEDTAVYYCASSNICNALNLQGNTYWGQGTLVTVSSGGGGSEVQLLESGGGLVQPGGSLRLSCAASGYTYGPYCMGWFRQAPGKEREGVAAVGGDARTWYGNSVKGRFTISRDNSKNTLYLQMNSLRAEDTAVYYCAADFDRTVCSDDIYDYTYRGQGTLVTVSSHHHHHH,2.27,1.1
hzWio-02-01-Hm4 (bispecific antibody) EVQLVESGGGLVQPGGSLRLSCAASGTAYHNACMGWFRQAPGKEREGVASIHLRDRTYYADSVKGRFTISRDNSKNTLYLQMNSLRAEDTAVYYCASSNICNALNLQGNTYWGQGTLVTVSSGGGGSEVQLLESGGGLVQPGGSLRLSCAASGYTYGPYCMGWFRQAPGKEREGVAAVGGDARTWYGNSVKGRFTISRDNSKNTLYLQMNSLRAEDTAVYYCAADFDRTVCSDDIYDYTYRGQGTLVTVSSHHHHHH,0.941,1.08
hzWio-02-01-Hm11 (bispecific antibody) EVQLVESGGGLVQPGGSLRLSCAASGTAYDNACMGWFRQAPGKEREGVASIHHRDRTYYADSVKGRFTISRDNSKNTLYLQMNSLRAEDTAVYYCASSNICNALNLQGNTYWGQGTLVTVSSGGGGSEVQLLESGGGLVQPGGSLRLSCAASGYTYGPYCMGWFRQAPGKEREGVAAVGGDARTWYGNSVKGRFTISRDNSKNTLYLQMNSLRAEDTAVYYCAADFDRTVCSDDIYDYTYRGQGTLVTVSSHHHHHH,1.42,1.02
hzWio-02-01-Hm3 (bispecific antibody) EVQLVESGGGLVQPGGSLRLSCAASGTAHDNACMGWFRQAPGKEREGVASIHLRDRTYYADSVKGRFTISRDNSKNTLYLQMNSLRAEDTAVYYCASSNICNALNLQGNTYWGQGTLVTVSSGGGGSEVQLLESGGGLVQPGGSLRLSCAASGYTYGPYCMGWFRQAPGKEREGVAAVGGDARTWYGNSVKGRFTISRDNSKNTLYLQMNSLRAEDTAVYYCAADFDRTVCSDDIYDYTYRGQGTLVTVSSHHHHHH,1.14,1.08
hzWio-02-01-Hm14 (bispecific antibody) EVQLVESGGGLVQPGGSLRLSCAASGTAYDNACMGWFRQAPGKEREGVASIHLRDHTYYADSVKGRFTISRDNSKNTLYLQMNSLRAEDTAVYYCASSNICNALNLQGNTYWGQGTLVTVSSGGGGSEVQLLESGGGLVQPGGSLRLSCAASGYTYGPYCMGWFRQAPGKEREGVAAVGGDARTWYGNSVKGRFTISRDNSKNTLYLQMNSLRAEDTAVYYCAADFDRTVCSDDIYDYTYRGQGTLVTVSSHHHHHH,1.26,1.25
hzWio-02-01-Hm13 (bispecific antibody) EVQLVESGGGLVQPGGSLRLSCAASGTAYDNACMGWFRQAPGKEREGVASIHLRHRTYYADSVKGRFTISRDNSKNTLYLQMNSLRAEDTAVYYCASSNICNALNLQGNTYWGQGTLVTVSSGGGGSEVQLLESGGGLVQPGGSLRLSCAASGYTYGPYCMGWFRQAPGKEREGVAAVGGDARTWYGNSVKGRFTISRDNSKNTLYLQMNSLRAEDTAVYYCAADFDRTVCSDDIYDYTYRGQGTLVTVSSHHHHHH,1.12,1.22
hzWio-02-01-Hm10 (bispecific antibody) EVQLVESGGGLVQPGGSLRLSCAASGTAYDNACMGWFRQAPGKEREGVASHHLRDRTYYADSVKGRFTISRDNSKNTLYLQMNSLRAEDTAVYYCASSNICNALNLQGNTYWGQGTLVTVSSGGGGSEVQLLESGGGLVQPGGSLRLSCAASGYTYGPYCMGWFRQAPGKEREGVAAVGGDARTWYGNSVKGRFTISRDNSKNTLYLQMNSLRAEDTAVYYCAADFDRTVCSDDIYDYTYRGQGTLVTVSSHHHHHH,1.27,1.1
hzWio-02-01-Hm16 (bispecific antibody) EVQLVESGGGLVQPGGSLRLSCAASGTAYDNACMGWFRQAPGKEREGVASIHLRDRTHYADSVKGRFTISRDNSKNTLYLQMNSLRAEDTAVYYCASSNICNALNLQGNTYWGQGTLVTVSSGGGGSEVQLLESGGGLVQPGGSLRLSCAASGYTYGPYCMGWFRQAPGKEREGVAAVGGDARTWYGNSVKGRFTISRDNSKNTLYLQMNSLRAEDTAVYYCAADFDRTVCSDDIYDYTYRGQGTLVTVSSHHHHHH,1.15,1.11
hzWio-02-01-Hm9 (bispecific antibody) EVQLVESGGGLVQPGGSLRLSCAASGTAYDNACMGWFRQAPGKEREGVAHIHLRDRTYYADSVKGRFTISRDNSKNTLYLQMNSLRAEDTAVYYCASSNICNALNLQGNTYWGQGTLVTVSSGGGGSEVQLLESGGGLVQPGGSLRLSCAASGYTYGPYCMGWFRQAPGKEREGVAAVGGDARTWYGNSVKGRFTISRDNSKNTLYLQMNSLRAEDTAVYYCAADFDRTVCSDDIYDYTYRGQGTLVTVSSHHHHHH,2.14,0.9
hzWio-02-01-Hm6 (bispecific antibody) EVQLVESGGGLVQPGGSLRLSCAASGTAYDNHCMGWFRQAPGKEREGVASIHLRDRTYYADSVKGRFTISRDNSKNTLYLQMNSLRAEDTAVYYCASSNICNALNLQGNTYWGQGTLVTVSSGGGGSEVQLLESGGGLVQPGGSLRLSCAASGYTYGPYCMGWFRQAPGKEREGVAAVGGDARTWYGNSVKGRFTISRDNSKNTLYLQMNSLRAEDTAVYYCAADFDRTVCSDDIYDYTYRGQGTLVTVSSHHHHHH,1.08,0.894
hzWio-02-01-Hm5 (bispecific antibody) EVQLVESGGGLVQPGGSLRLSCAASGTAYDHACMGWFRQAPGKEREGVASIHLRDRTYYADSVKGRFTISRDNSKNTLYLQMNSLRAEDTAVYYCASSNICNALNLQGNTYWGQGTLVTVSSGGGGSEVQLLESGGGLVQPGGSLRLSCAASGYTYGPYCMGWFRQAPGKEREGVAAVGGDARTWYGNSVKGRFTISRDNSKNTLYLQMNSLRAEDTAVYYCAADFDRTVCSDDIYDYTYRGQGTLVTVSSHHHHHH,1.11,1.01
hzWio-02-01-Hm12 (bispecific antibody) EVQLVESGGGLVQPGGSLRLSCAASGTAYDNACMGWFRQAPGKEREGVASIHLHDRTYYADSVKGRFTISRDNSKNTLYLQMNSLRAEDTAVYYCASSNICNALNLQGNTYWGQGTLVTVSSGGGGSEVQLLESGGGLVQPGGSLRLSCAASGYTYGPYCMGWFRQAPGKEREGVAAVGGDARTWYGNSVKGRFTISRDNSKNTLYLQMNSLRAEDTAVYYCAADFDRTVCSDDIYDYTYRGQGTLVTVSSHHHHHH,0.68,1.17
hzWio-02-01-Hm7 (bispecific antibody) EVQLVESGGGLVQPGGSLRLSCAASGTAYDNACHGWFRQAPGKEREGVASIHLRDRTYYADSVKGRFTISRDNSKNTLYLQMNSLRAEDTAVYYCASSNICNALNLQGNTYWGQGTLVTVSSGGGGSEVQLLESGGGLVQPGGSLRLSCAASGYTYGPYCMGWFRQAPGKEREGVAAVGGDARTWYGNSVKGRFTISRDNSKNTLYLQMNSLRAEDTAVYYCAADFDRTVCSDDIYDYTYRGQGTLVTVSSHHHHHH,1.12,1.03
hzWio-02-01-Hm15 (bispecific antibody) EVQLVESGGGLVQPGGSLRLSCAASGTAYDNACMGWFRQAPGKEREGVASIHLRDRHYYADSVKGRFTISRDNSKNTLYLQMNSLRAEDTAVYYCASSNICNALNLQGNTYWGQGTLVTVSSGGGGSEVQLLESGGGLVQPGGSLRLSCAASGYTYGPYCMGWFRQAPGKEREGVAAVGGDARTWYGNSVKGRFTISRDNSKNTLYLQMNSLRAEDTAVYYCAADFDRTVCSDDIYDYTYRGQGTLVTVSSHHHHHH,1.54,1.13
